According to paper PMC10694607:

How the values were obtained:
Test in all cases: BLI
[1] = biological target: TRIM21–MH4 fusion protein (human) (UniProt P19474)
[2] = biological target: TRIM21–ME2 fusion protein (human) (UniProt P19474)
[3] = biological target: TRIM21–MC1 fusion protein (human) (UniProt P19474)

- Kd [1]: 148 nM
- Kd [2]: 753 nM
- Kd [3]: 475 nM
Substance: recombinant MALT1 (BPS Bioscience), analyte in BLI (from UniProt Q9UDY8 1-824) (natural protein)
